{
  "source": "paper doi:10.1101/2025.08.03.668247",
  "about": "“The structure of Egalitarian in complex with the K10 mRNA localization signal reveals a modular binding surface required for function”",
  "key": {"GST-Egl512-819 [1]": {"target": "T1, GST-Egl512-819 (Drosophila melanogaster, UniProt Q9W1K4 512-819)", "T1 sequence": "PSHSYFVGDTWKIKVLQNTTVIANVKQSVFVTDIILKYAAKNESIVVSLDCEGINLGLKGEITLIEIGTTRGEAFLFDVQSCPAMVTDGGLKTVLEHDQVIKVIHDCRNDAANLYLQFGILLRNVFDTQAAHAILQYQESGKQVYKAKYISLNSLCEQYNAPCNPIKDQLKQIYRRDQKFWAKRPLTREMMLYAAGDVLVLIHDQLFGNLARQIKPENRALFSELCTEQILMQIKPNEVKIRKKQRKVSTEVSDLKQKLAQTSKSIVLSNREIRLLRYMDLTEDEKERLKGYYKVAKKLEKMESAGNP", "assay": "fluorescence anisotropy; FA: 20 mM HEPES-NaOH pH 7.5, 100 mM NaCl, 10% glycerol, 20 C, 10 nM FAM-RNA; competition: 150 nM Egl512-819 + 10 nM FAM-K10 TLS, same buffer", "conditions": "protein: recombinant, tags: N-terminal GST (TEV site)"}, "GST-Egl512-819 [2]": {"target": "T1, GST-Egl512-819", "assay": "competition; vs FAM-K10 TLS; FA: 20 mM HEPES-NaOH pH 7.5, 100 mM NaCl, 10% glycerol, 20 C, 10 nM FAM-RNA; competition: 150 nM Egl512-819 + 10 nM FAM-K10 TLS, same buffer", "conditions": "protein: recombinant, tags: N-terminal GST (TEV site)"}, "GST-Egl512-819 [3]": {"target": "T1, GST-Egl512-819", "assay": "competition; vs FAM-K10 TLS; none at 40,000-fold excess; FA: 20 mM HEPES-NaOH pH 7.5, 100 mM NaCl, 10% glycerol, 20 C, 10 nM FAM-RNA; competition: 150 nM Egl512-819 + 10 nM FAM-K10 TLS, same buffer", "conditions": "protein: recombinant; tags: N-terminal GST (TEV site)"}, "GST-Egl512-819 [4]": {"target": "T1, GST-Egl512-819", "assay": "fluorescence anisotropy; listed as K10-10nt; FA: 20 mM HEPES-NaOH pH 7.5, 100 mM NaCl, 10% glycerol, 20 C, 10 nM FAM-RNA; competition: 150 nM Egl512-819 + 10 nM FAM-K10 TLS, same buffer", "conditions": "protein: recombinant; tags: N-terminal GST (TEV site); label: 5'-FAM in direct assay; hairpin, 3' overhang 10 nt"}, "[5]": {"conditions": "label: 5'-FAM in direct assay, hairpin"}},
  "data": [
    {"binder": "dsRNA (dsRNA) RNA 1: UGAGUGCCAGAAGCUGCCUC RNA 2: GAGGCAGCUUCUGGCACUCA", "values": [
      {"measurement": "Kd", "setting": "GST-Egl512-819 [1]; blunt", "value": "192 ± 7", "unit": "nM"}
    ]},
    {"binder": "bcd_VbL (structured_RNA) RNA: GGGCCCAAAAUGAAAAAUGUUUCUCUUGGGCGUAAUCUCAUACAAUGAUUACCCUUAAAGAUCGAACAUUUAAACAAUAAUAUUUGGG", "values": [
      {"measurement": "Kd", "setting": "GST-Egl512-819 [1]; [5]", "value": "123 ± 13", "unit": "nM"},
      {"measurement": "IC50", "setting": "GST-Egl512-819 [2]; [5]", "value": "31 ± 5", "unit": "nM"}
    ]},
    {"binder": "bcd_VbS (structured_RNA) RNA: AAAUGUUUCUCUUGGGCGUAAUCUCAUACAAUGAUUACCCUUAAAGAUCGAACAUUU", "values": [
      {"measurement": "Kd", "setting": "GST-Egl512-819 [1]; label: 5'-FAM, hairpin", "value": "158 ± 8", "unit": "nM"}
    ]},
    {"binder": "ACAUGAGGAUUACCCAUGU (structured_RNA)", "note": "[MS2 stem loop]", "values": [
      {"measurement": "IC50", "setting": "GST-Egl512-819 [2]; hairpin", "value": "142 ± 13", "unit": "nM"}
    ]},
    {"binder": "AGGCAGTTTCTGGTACTCAG (ssDNA)", "note": "[ssDNA]", "values": [
      {"measurement": "binding result", "setting": "GST-Egl512-819 [3]", "value": "no binding"}
    ]},
    {"binder": "UUUUUUUUUUUUUUUUUUUU (ssRNA)", "note": "[ssRNA (U20)]", "values": [
      {"measurement": "Kd", "setting": "GST-Egl512-819 [1]; label: 5'-FAM", "value": "175 ± 3", "unit": "nM"}
    ]},
    {"binder": "ARF1 dsRNA (dsRNA) RNA 1: UGAGUGCCAGAAGCUGCCUC RNA 2: GAGGCAGUUUCUGGUACUCA", "values": [
      {"measurement": "IC50", "setting": "GST-Egl512-819 [2]; blunt, with G-U wobbles", "value": "102 ± 14", "unit": "nM"}
    ]},
    {"binder": "dsDNA (dsDNA) DNA 1: AGGCAGTTTCTGGTACTCAG DNA 2: CTGAGTACCAGAAACTGCCT", "values": [
      {"measurement": "IC50", "setting": "GST-Egl512-819 [2]; blunt", "value": "8890 ± 933", "unit": "nM"}
    ]},
    {"binder": "K10-flank (K10-10nt) (structured_RNA) RNA: CUUGAUUGUAUUUUUAAAUUAAUUCUUAAAAACUACAAAUUAAGAUCACUCUGU", "values": [
      {"measurement": "Kd", "setting": "GST-Egl512-819 [4]", "value": "92 ± 13", "unit": "nM"},
      {"measurement": "IC50", "setting": "GST-Egl512-819 [2]; label: 5'-FAM in direct assay, hairpin, 3' overhang 10 nt", "value": "53 ± 2", "unit": "nM"}
    ]},
    {"binder": "GGCUUGAUUGUAUUUUUAAAUUAAUUCUUAAAAACUACAAAUUAAGCC (structured_RNA)", "note": "[K10-2GC]", "values": [
      {"measurement": "IC50", "setting": "GST-Egl512-819 [2]; hairpin with two bulges", "value": "57 ± 6", "unit": "nM"}
    ]},
    {"binder": "CUUGAUUGUAUUUUUAAAUUAAUUCUUAAAAAUACAAUUAAG (structured_RNA)", "note": "[K10-Delta b1b2]", "values": [
      {"measurement": "Kd", "setting": "GST-Egl512-819 [1]; [5]", "value": "172 ± 18", "unit": "nM"}
    ]},
    {"binder": "CUUGAUUGUAUUUUUAAAUUAAUUCUUAAAAACUACAAAUUAAG (structured_RNA)", "note": "[K10 TLS (unlabeled)]", "values": [
      {"measurement": "IC50", "setting": "GST-Egl512-819 [2]; hairpin with two bulges", "value": "53 ± 4", "unit": "nM"}
    ]},
    {"binder": "AUUGAUUGUAUUUUUAAAUUAAUUCUUAAAAACUACAAAUUAAU (structured_RNA)", "note": "[K10-AU]", "values": [
      {"measurement": "IC50", "setting": "GST-Egl512-819 [2]; hairpin", "value": "67 ± 4", "unit": "nM"}
    ]},
    {"binder": "AUAUAUAUAUAUAUAUAUAU (ssRNA)", "note": "[ssRNA (AU20)]", "values": [
      {"measurement": "Kd", "setting": "GST-Egl512-819 [1]; label: 5'-FAM", "value": "137 ± 8", "unit": "nM"}
    ]},
    {"binder": "CUUGAUUGUACUUUUUAAAUUAAUUCUUAAAAAUACAAAUUAAG (structured_RNA)", "note": "[K10-b1as]", "values": [
      {"measurement": "IC50", "setting": "GST-Egl512-819 [2]; hairpin", "value": "63 ± 1", "unit": "nM"}
    ]},
    {"binder": "AUUGAUUGUACUUUUUAAAUUAAUUCUUAAAAAUACAAAUUAAU (structured_RNA)", "note": "[K10-b1as-AU]", "values": [
      {"measurement": "IC50", "setting": "GST-Egl512-819 [2]; hairpin", "value": "87 ± 8", "unit": "nM"}
    ]},
    {"binder": "GAAUUAAACAUCAAAAAUUCUUAAUUAAAUUUUUAUGUUAGUUC (structured_RNA)", "note": "[K10-as]", "values": [
      {"measurement": "Kd", "setting": "GST-Egl512-819 [1]; [5]", "value": "102 ± 6", "unit": "nM"}
    ]}
  ]
}
